Square brackets hold non-standard residues; d marks the D form. Ends that are not written are not given here.

B1: ISG20 D-peptide I1R/R2I (peptide)
peptide: YARIARRGLPRLAVSD
modifications: not fully specified (some residues)
notes: ISG20, human, residues 168-181 with the changes; numbers count on: the 14-mer peptide (position 1 = Ile168); also called ISG20^I1R/R2I; source: synthetic peptide (GenScript)
B2: ISG20 D-peptide WT (competitive kinase assay form, with N-terminal Tyr-Ala) (peptide)
peptide: YAIRARRGLPRLAVSD
modifications: not fully specified
notes: ISG20, human, residues 168-181; also called ISG20^WT; ISG20 peptide WT; source: synthetic peptide (GenScript)
B3: ISG20 D-peptide G6Q (peptide)
peptide: [dY][dA][dI][dR][dA][dR][dR][dQ][dL][dP][dR][dL][dA][dV][dS][dD]
notes: ISG20, human, residues 168-181 with the change; numbers count on: the 14-mer peptide (position 1 = Ile168); also called ISG20^G6Q; source: synthetic peptide (GenScript)
B4: ISG20 D-peptide I1N (peptide)
peptide: YANRARRGLPRLAVSD
modifications: not fully specified (some residues)
notes: ISG20, human, residues 168-181 with the change; numbers count on: the 14-mer peptide (position 1 = Ile168); also called ISG20^I1N; source: synthetic peptide (GenScript)

For this assay, the target named is T1, Active phosphorylated His6-tagged ERK2 WT (rat (p-0033 says mouse), UniProt P63086 3-358, phosphorylated (active form; sites not given)).
T1 construct: ERK2 (MAPK1); rat numbering; Same plasmid as the crystallised protein m9, but phosphorylated; also called WT ERK2; His6-ERK2; source: E. coli BL21(DE3), co-expressed with GST-MEK1ΔN3, purified (Talon resin)
In words: competitive peptide kinase assay; D-peptide titrated as competitive inhibitor of 10 nM ERK2 on 5 μM D-site dependent reporter peptide (AQT0376), 10 μM ATP; 54 mM HEPES pH 7.4, 1.2 mM DTT, 0.01% Brij-35, 1% glycerol, 0.2 mg/ml BSA, 10 mM MgCl2; fluorescence read-out; IC50 as relative binding affinity. The note with it: both partners purified.
Turning to B1, the IC50 came to 200 µM. On to B2, for which the concentration for half-maximal inhibition (IC50) was 5.4 µM. As for B3, the figure is 41 µM; as for B4, 190 µM.

The IC50 is the concentration needed to halve the response being measured.
